Molecular target: recombinant human C2
Assay: ECL_MSD
Conditions: pH 6.0; 0.2 mol/L citric acid, 0.2 mol/L sodium citrate; 150 mmol/L NaCl

EC50: 32.2 µg/mL
Substance: ARGX-117

Reference: publication PMC7485568
